# From patent publication US20120141464A1 (ZENYTH OPERATIONS, published 2012)
# Changes are numbered by the printed parent chain.
# B1: Antibody 3 (28G5), parent antibody (antibody, V domains shown)
# VH: QVQLVQSGAEVKKPGASVKVSCKISGHSLSELSIHWVRQTPTKGFEWMGGFDPEENEIVYAQRFQGRVTMTEDTSIDTAYLTLSSLRSDDTAVYYCSIVGSFSGWAFDYWGKGTMVTVSS
# VL: QAVLTQPSSVSGAPGQRVTISCTGSGSNIGAPYDVSWYQQLPGTAPKLLIYHNNKRPSGVPDRFSASKSGTSASLAITGLQADDEADYYCQSYDSSLSGSVFGGGTKVTVL
# B2: Antibody 2 (antibody, V domains shown)
# VH: B1 VH with W105P, F107L, D108R, Y109P
# VL: B1 VL
# notes: also called Antibody 02; Ab2
# B3: Antibody 4 (antibody, V domains shown)
# VH: B1 VH with S97A, G104P, W105P, A106T, F107Y, D108G
# VL: B1 VL
# notes: also called Antibody 04; Ab4
# B4: Antibody 5 (antibody, V domains shown)
# VH: B1 VH with S97A, W105Y, A106P, F107Y, D108R, Y109P, K112Q
# VL: B1 VL
# notes: also called Antibody 05; Ab5
# B5: Antibody 7 (antibody, V domains shown)
# VH: B1 VH with S97A, W105P, A106V, F107Y, D108G, Y109L
# VL: B1 VL
# notes: also called Antibody 07; Ab7
# B6: Antibody 8 (antibody, V domains shown)
# VH: B1 VH with S97A, G104P, W105P, F107Y, D108R, Y109P
# VL: B1 VL
# notes: also called Antibody 08; Ab8
# B7: Antibody 9 (antibody, V domains shown)
# VH: B1 VH with S97A, G104P, W105V, A106T, F107Y, D108G, Y109L, K112Q
# VL: B1 VL
# B8: Antibody 10 (antibody, V domains shown)
# VH: B1 VH with S97A, W105L, F107Y, D108R, Y109P, V118I
# VL: B1 VL
# notes: also called Ab10
# B9: Antibody 11 (antibody, V domains shown)
# VH: B1 VH with G15E, S25P, S97A, G104P, W105I, A106T, F107Y, D108G, Y109L
# VL: B1 VL with A13V
# B10: Antibody 12 (antibody, V domains shown)
# VH: B1 VH
# VL: B1 VL with S96E, L97P, S98T, G99E, S100I, V101R, V108L
# notes: also called Ab12
# B11: Antibody 14 (antibody, V domains shown)
# VH: B1 VH with V99L, F102V, S103T, G104A
# VL: B1 VL with S96E, L97D, S98R, G99M, S100T, V101E
# notes: also called Ab14
# B12: Antibody 15 (antibody, V domains shown)
# VH: B1 VH with V99A, F102I, S103P
# VL: B1 VL with S96Q, S98I, G99S, S100A, V101A
# notes: also called Ab15
# B13: Antibody 16 (antibody, V domains shown)
# VH: B1 VH with G104P, W105L, A106T, F107M, D108G, Y109L
# VL: B1 VL with D83E, Q91A, S92T, Y93S, S95E, S96I
# notes: also called Ab16
# B14: Antibody 17 (antibody, V domains shown)
# VH: B1 VH with G104P, W105L, A106T, F107M, D108G, Y109L
# VL: B1 VL with Q91A, S92T, Y93V, D94E, S95D, S96G
# notes: also called Ab17
# B15: Antibody 20 (antibody, V domains shown)
# VH: B1 VH with G104P, W105L, A106T, F107L, D108G, Y109L
# VL: B1 VL with Q91A, S92T, Y93V, S95E, S96A
# notes: also called Ab20
# B16: Antibody 19 (antibody, V domains shown)
# VH: B1 VH with S97A, F102V, G104R, W105I, A106T, F107Y, D108G, Y109F
# VL: B1 VL with S96R, L97N, S98P, G99H, S100V, V101I, V108L
# notes: also called Ab19
# B17: Antibody 6, non-germlined IgG4 (antibody, V domains shown)
# VH: B1 VH with G104P, W105L, A106T, F107L, D108G, Y109L
# VL: B1 VL with Q91A, S92T, Y93V, D94E, S95A, S96G, V108L
# B18: Antibody 6 (as listed; germlining state in the experiment not stated) (antibody, V domains shown)
# VH: QVQLVQSGAEVKKPGASVKVSCKVSGYTLTELSIHWVRQAPGKGLEWMGGFDPEENEIVYAQRFQGRVTMTEDTSTDTAYMELSSLRSEDTAVYYCAIVGSFSPLTLGLWGQGTMVTVSS
# VL: QSVLTQPPSVSGAPGQRVTISCTGSGSNIGAPYDVSWYQQLPGTAPKLLIYHNNKRPSGVPDRFSGSKSGTSASLAITGLQAEDEADYYCATVEAGLSGSVFGGGTKLTVL
# Key:
# cynomolgus GM-CSFRα = cynomolgus GM-CSFRα (cynomolgus); experiment: cell-based or functional assay
# [1] = target: T1, recombinant purification-tagged human GM-CSF receptor α extracellular domain (human, UniProt P15509 23-320); experiment: SPR (BIAcore 2000); IgG4 captured on protein A, tagged receptor ECD as analyte; 1:1 Langmuir fit
# T1 construct: Amino acids 1 to 298 of the mature receptor; also called purified GM-CSFRα extracellular domain; soluble extracellular domain of GM-CSFRα; not shown: N-terminal purification tag; Flag-tagged
# T1 sequence: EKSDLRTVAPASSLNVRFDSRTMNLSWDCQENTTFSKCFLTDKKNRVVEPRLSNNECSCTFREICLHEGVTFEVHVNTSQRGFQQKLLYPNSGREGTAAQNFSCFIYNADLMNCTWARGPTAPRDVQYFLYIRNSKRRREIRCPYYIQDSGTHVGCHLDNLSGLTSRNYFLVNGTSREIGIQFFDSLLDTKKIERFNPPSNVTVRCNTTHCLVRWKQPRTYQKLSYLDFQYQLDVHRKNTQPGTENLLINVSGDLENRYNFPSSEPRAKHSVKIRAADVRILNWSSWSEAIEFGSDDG
# human GM-CSFRα [2] = target: T2, human GM-CSFRα (human, UniProt P15509 23-400); experiment: cell-based or functional assay
# T2 sequence: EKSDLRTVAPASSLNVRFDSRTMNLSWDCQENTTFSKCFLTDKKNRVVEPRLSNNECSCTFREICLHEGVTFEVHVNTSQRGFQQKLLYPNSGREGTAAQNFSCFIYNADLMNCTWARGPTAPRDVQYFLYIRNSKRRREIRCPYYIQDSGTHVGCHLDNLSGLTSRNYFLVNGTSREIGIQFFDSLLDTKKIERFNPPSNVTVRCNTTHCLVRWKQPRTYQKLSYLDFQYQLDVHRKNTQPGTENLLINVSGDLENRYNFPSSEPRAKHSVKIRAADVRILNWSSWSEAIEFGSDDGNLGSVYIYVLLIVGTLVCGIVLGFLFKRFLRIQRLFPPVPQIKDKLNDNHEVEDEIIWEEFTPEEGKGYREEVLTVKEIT
# human GM-CSFRα [3] = target: T2, human GM-CSFRα; experiment: cell-based or functional assay; remark: listed apart in the source
# human GM-CSFRα [4] = target: T2, human GM-CSFRα; experiment: cell-based or functional assay; remark: listed apart in the source
# human GM-CSFRα [5] = target: T2, human GM-CSFRα; experiment: cell-based or functional assay; remark: listed apart in the source
Binder,"IC50, cynomolgus granulocyte shape change assay (cynomolgus GM-CSFRα) [pM]",Kd [1] [pM],"IC50, cynomolgus granulocyte shape change assay (7 pM human GM-CSF) (cynomolgus GM-CSFRα) [pM]","IC50, human granulocyte shape change assay (7 pM human GM-CSF) (human GM-CSFRα [2]) [pM]","IC50, TF-1 proliferation assay (7 pM human GM-CSF) (human GM-CSFRα [3]) [pM]","IC50, monocyte TNFα release assay (1 nM human GM-CSF) (human GM-CSFRα [4]) [pM]","IC50, colony formation assay (10 ng/ml human GM-CSF) (human GM-CSFRα [5]) [µg/mL]"
B1,~5000,–,–,–,–,–,–
B2,–,376,3.2,20.7,15,103,–
B3,–,4070,–,–,48,–,–
B4,–,847,–,30,9.3,67,–
B5,–,3930,–,–,93.8,–,–
B6,–,552,–,–,34.5,–,–
B7,–,–,–,44,40.8,74,–
B8,–,1500,–,62,55.3,139,–
B9,–,–,–,90,9,–,–
B10,–,3020,–,–,246,–,–
B11,–,502,–,–,16.3,–,–
B12,–,1030,–,–,164,–,–
B13,–,1140,–,16,12.8,–,–
B14,–,193,–,–,14.3,–,–
B15,–,127,–,7.8,9.8,–,–
B16,–,388,–,–,23.8,–,–
B17,–,139,–,13.3,0.97,43,–
B18,–,–,1.73,–,–,–,~0.08
